Data on 8 molecules can be found in PMC2045677, “Thyroid hormone receptor orthologues from invertebrate species with emphasis on Schistosoma mansoni”.

Data set [1] concerns the target T1, SmTRα (Schistosoma mansoni, UniProt Q2TUU7 1-1115).
T1 sequence: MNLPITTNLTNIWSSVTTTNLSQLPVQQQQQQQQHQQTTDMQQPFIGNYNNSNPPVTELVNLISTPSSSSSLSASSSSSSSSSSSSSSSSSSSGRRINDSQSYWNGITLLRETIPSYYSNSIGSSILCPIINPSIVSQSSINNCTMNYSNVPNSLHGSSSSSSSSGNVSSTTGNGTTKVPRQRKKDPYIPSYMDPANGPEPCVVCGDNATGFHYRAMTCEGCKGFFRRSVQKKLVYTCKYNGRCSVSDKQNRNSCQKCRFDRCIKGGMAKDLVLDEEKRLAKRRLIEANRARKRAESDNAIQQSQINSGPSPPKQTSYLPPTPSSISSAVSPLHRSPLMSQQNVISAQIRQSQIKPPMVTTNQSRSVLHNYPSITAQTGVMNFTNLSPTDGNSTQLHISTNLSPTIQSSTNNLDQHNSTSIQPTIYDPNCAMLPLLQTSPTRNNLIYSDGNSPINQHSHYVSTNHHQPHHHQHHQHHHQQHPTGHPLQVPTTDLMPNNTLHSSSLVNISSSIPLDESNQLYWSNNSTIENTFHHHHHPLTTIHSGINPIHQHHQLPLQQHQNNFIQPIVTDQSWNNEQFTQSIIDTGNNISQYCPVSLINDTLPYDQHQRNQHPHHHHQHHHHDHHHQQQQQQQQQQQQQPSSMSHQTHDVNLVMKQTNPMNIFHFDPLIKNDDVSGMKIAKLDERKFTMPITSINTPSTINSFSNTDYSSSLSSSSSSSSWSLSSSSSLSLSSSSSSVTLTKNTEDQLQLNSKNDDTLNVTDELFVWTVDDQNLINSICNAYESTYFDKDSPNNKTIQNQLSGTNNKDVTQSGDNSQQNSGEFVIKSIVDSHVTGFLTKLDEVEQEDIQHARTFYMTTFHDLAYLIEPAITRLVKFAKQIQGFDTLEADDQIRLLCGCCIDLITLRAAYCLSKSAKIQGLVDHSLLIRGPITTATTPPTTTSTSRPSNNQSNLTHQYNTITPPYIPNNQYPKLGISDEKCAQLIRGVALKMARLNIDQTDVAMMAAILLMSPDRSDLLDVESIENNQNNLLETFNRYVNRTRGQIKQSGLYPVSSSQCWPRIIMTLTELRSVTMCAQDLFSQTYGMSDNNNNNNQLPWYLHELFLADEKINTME
Kind of data set: EMSA; monomer or homodimer; EMSA on ice 40 min, 15 µl with 3 µl 5x buffer (5x: 20% glycerol, 5 mM MgCl2, 2.5 mM EDTA, 2.5 mM DTT, 250 mM NaCl, 50 mM Tris-HCl pH 7.5, 0.25 mg/ml poly(dI-dC)); 6% native gel, 1x TBE, 4°C. The note with it: protein: ivt; tags: none stated (pCITE-4a); label: 32P; blunt. For orientation: In EMSA bound probe runs differently from free probe, usually more slowly.

Data set [2] addresses SmTRα(Gln182-Ala288) (Schistosoma mansoni, UniProt Q2TUU7 182-288). Briefly: EMSA; monomer or homodimer; cold self competes; EMSA on ice 40 min, 15 µl with 3 µl 5x buffer (5x: 20% glycerol, 5 mM MgCl2, 2.5 mM EDTA, 2.5 mM DTT, 250 mM NaCl, 50 mM Tris-HCl pH 7.5, 0.25 mg/ml poly(dI-dC)); 6% native gel, 1x TBE, 4°C. The note with it: protein: ivt; tags: none stated (pCITE-4a); label: 32P; blunt.

B1: half-site (dsDNA)
DNA 1: GTACCGTAAGGTCACTCGCGT
DNA 2: ACGCGAGTGACCTTACGGTAC
Turning to B1, the binding result in data set [1] and in data set [2] was “binds” in each case.

B2: DR1 (dsDNA)
DNA 1: CCGTAAGGTCACAGGTCACTCG
DNA 2: CGAGTGACCTGTGACCTTACGG
Turning to B2, the binding result in data set [1] and in data set [2] was “binds” throughout.

B3: DR3 (dsDNA)
DNA 1: CCGTAAGGTCACAGAGGTCACTCG
DNA 2: CGAGTGACCTCTGTGACCTTACGG
As to B3, the binding result in data set [1] and in data set [2] was “binds” each time.

B4: DR5 (dsDNA)
DNA 1: CCGTAAGGTCACCAGGAGGTCACTCG
DNA 2: CGAGTGACCTCCTGGTGACCTTACGG
On to B4, for which the binding result in data set [1] and in data set [2] was “binds” each time.

B5: DR2 (dsDNA)
DNA 1: CCGTAAGGTCACAAGGTCACTCG
DNA 2: CGAGTGACCTTGTGACCTTACGG
B5: the binding result in data set [1] and in data set [2] was “binds” in each case.

B6: DR0 (dsDNA)
DNA 1: CCGTAAGGTCAAGGTCACTCG
DNA 2: CGAGTGACCTTGACCTTACGG
In the case of B6, the binding result in data set [1] and in data set [2] was “binds” in each case.

B7: Pal0 (dsDNA)
DNA 1: CGCAAGGTCATGACCTCG
DNA 2: CGAGGTCATGACCTTGCG
Turning to B7, the binding result in data set [1] and in data set [2] was “binds” in each case.

B8: DR4 (dsDNA)
DNA 1: CCGTAAGGTCACAGGAGGTCACTCG
DNA 2: CGAGTGACCTCCTGTGACCTTACGG
In the case of B8, the binding result in data set [1] and in data set [2] was “binds” each time.
